Source: PMC9207808 (ACS Chemical Biology, 2022)
“And” between values parts separate entries of the source, which are not always exact repeats. Equal entries are not always repeated. Where two headings read alike, the source gives them in different places.

Tests used:
[1] = target: Doc1-122–His6 (DocSTm toxin) (Salmonella typhimurium); test: SPR; Biacore S200; Doc-His6 captured on NTA chip; Phd1-73 protein as analyte, multi-cycle kinetics, eight concentrations 25 nM to 0.390625 nM, association 200 s, dissociation 1500 s; 22 C; 10 mM HEPES, 500 mM NaCl, 50 uM EDTA, 0.005% TWEEN 20, pH 8.0; kinetic 1:1 fit with constant RMAX
[2] = target: Doc1-122–His6 (DocSTm toxin) (Salmonella typhimurium); test: as above; remark: listed apart in the source
[3] = target: FLAG–Phd1-73 (PhdSTm antitoxin, His6 removed by thrombin) (Salmonella typhimurium); test: SEC; HiLoad 16/600 Superdex 75pg, 4 C, Phd SEC buffer (0.025 M K2HPO4, 0.15 M NaCl, 5% glycerol, pH 8.0); mass from the manufacturer's calibration curves; last purification step
[4] = system: DocH66Y (E. coli P1 Phage); conditions: cited from earlier work
Excerpt: (§1) page 23: Table S5. […] Organism Complex Kd (nM) SPR Kd (nM) ITC Reference S. Typhimurium Doc-Phd1-73 0.061 ± 0.019 - This study S. Typhimurium Doc-Phd52-73 (peptide 1) 0.073 ± 0.018 - This study E. coli P1 Phage Doc-Phd1-73 350 - 5 E. coli P1 Phage DocH66Y-Phd1-73 1300 - 5 E. coli P1 Phage Doc-Phd51-73 - 240 5 E. coli P1 Phage DocH66Y-Phd52-73 - 1 6 S23

[5] = system: Doc (E. coli P1 Phage); conditions: ref 5 (ESI), read-out: Kd (nM) ITC; cited from earlier work
Excerpt: as §1

[6] = target: Doc1-122–His6 (DocSTm toxin) (Salmonella typhimurium); test: SPR; Biacore S200; Doc-His6 captured on a Series S NTA chip (200-400 RU); peptide as analyte, single-cycle kinetics, six concentrations (3-fold dilutions), 30 uL/min; 22 C; 10 mM HEPES, 500 mM NaCl, 50 uM EDTA, 0.005% TWEEN 20, pH 8.0; kinetic 1:1 fit
[7] = target: Doc1-122–His6 (DocSTm toxin) (Salmonella typhimurium); test: as above; remark: listed apart in the source
[8] = target: Doc1-122–His6 (DocSTm toxin) (Salmonella typhimurium); test: as above; remark: listed apart in the source
[9] = target: Doc1-122–His6 (DocSTm toxin) (Salmonella typhimurium); test: as above; remark: listed apart in the source
[10] = target: T1, Doc toxin of Salmonella enterica serovar Typhimurium (DocSTm) (Salmonella enterica serovar Typhimurium, UniProt A0A1C9CWN5 1-126); test: SPR; DocSTm immobilised on a Series S NTA chip; analytes in multicycle kinetics, kinetic and/or steady-state 1:1 fit (steady-state for peptide 14); 22 °C; 10 mM HEPES, 500 mM NaCl, 50 μM EDTA, 0.005% TWEEN 20, pH 8.0; conditions: both partners purified
[11] = target: T1, Doc toxin of Salmonella enterica …; test: differential scanning fluorimetry; DocSTm 5 μM with SYPRO Orange, 25 to 95 °C; 50 μM PhdSTm or peptide 1 (Figure 2a); 20 mM K2HPO4, 50 mM (NH4)2SO4, pH 8.0; shift of the melting temperature of DocSTm; conditions: both partners purified
[12] = target: T1, Doc toxin of Salmonella enterica …; test: SPR; DocSTm immobilised on a Series S NTA chip (150 nM, 200-400 RU); analytes in single-cycle kinetics, typically six concentrations, kinetic 1:1 fit; 22 °C; 10 mM HEPES, 500 mM NaCl, 50 μM EDTA, 0.005% TWEEN 20, pH 8.0; conditions: both partners purified

With “FLAG–Phd1-73 (PhdSTm antitoxin, His6 removed by thrombin) (natural protein)” the Kd [1] was 0.0507 nM and 0.0505 nM and 0.0883 nM, the koff [1] was 3.02e-05 s⁻¹ and 2.2e-05 s⁻¹ and 3.42e-05 s⁻¹ and the kon [1] was 596000 M⁻¹ s⁻¹ and 436000 M⁻¹ s⁻¹ and 387000 M⁻¹ s⁻¹. For the same molecule, the koff [2] was 2.9e-05 s⁻¹, the kon [2] was 473000 M⁻¹ s⁻¹ and the stoichiometry N [3] was 2.

In the case of “Phd1-73 (E. coli P1 Phage): full-length Phd antitoxin from E. coli P1 phage, literature values”, the Kd ([4]; ref 5 (ESI), read-out: Kd (nM) SPR) is listed as 1300 nM.

For “Phd51-73 (E. coli P1 Phage): Phd residues 51-73 of E. coli P1 phage, literature value (ALDAEFASLFDTLDSTNKELVNR; UniProt Q06253 51-73, looked up, fragment)”, the Kd [5] is given as 240 nM.

For “Phd52-73 (E. coli P1 Phage): Phd residues 52-73 of E. coli P1 phage, literature value (LDAEFASLFDTLDSTNKELVNR; UniProt Q06253 52-73, looked up, fragment)”, the Kd ([4]; ref 6 (ESI), read-out: Kd (nM) ITC) is given as 1 nM.

For peptide 1 (PhdSTm52-73), the kon [6] was 1.1e+06 1/(M s) (2×) and 1.6e+06 1/(M s) and 1.3e+06 1/(M s), the koff [7] was 9.1e-05 s⁻¹ and the kon [7] was 1.25e+06 M⁻¹ s⁻¹.

peptide 12 (PhdSTm52-73-N65A) showed a Kd [7] of 0.145 nM, a koff [7] of 0.000203 s⁻¹ and a kon [7] of 1.4e+06 M⁻¹ s⁻¹. The kon [8] was 1.3e+06 1/(M s) (2×) and 1.6e+06 1/(M s) and 1.4e+06 1/(M s).

For peptide 19 (PhdSTm52-73-K73A), the kon [9] was 1.08e+06 M⁻¹ s⁻¹ and 2.12e+06 M⁻¹ s⁻¹ and 1.28e+06 M⁻¹ s⁻¹, the Kd [7] was 0.087 nM and the koff [7] was 0.000126 s⁻¹. For the same molecule, the kon [7] was 1.44e+06 M⁻¹ s⁻¹.

B1: Phd antitoxin of Salmonella enterica serovar Typhimurium, full-length (PhdSTm) (natural protein)
chain: MFMRTVNYSEARQNLAEVLESAVTGGPVTITRRGHKSAVIISAEEFERYQTARMDDEFAAIMAVHGNELRELADK
notes: also called PhdSTm 1-73; full-length Phd antitoxin
For B1, the “half-life of the complex” value [10] was roughly 7 h and the “ΔTm of DocSTm (DSF)” value [11] was 31.3 ± 0.9 °C.

B2: peptide 1 (Phd 52-73, Ac-WMDDEFAAIMAVHGNELRELADK-OH) (peptide)
peptide: Ac-WMDDEFAAIMAVHGNELRELADK-OH
notes: tryptophan introduced at the N-terminus for spectrophotometric quantification; not part of Phd; also called wild-type peptide 1; C-terminal Phd peptide; source: synthetic peptide
With B2 the Kd [12] was 0.073 nM and the “ΔTm of DocSTm (DSF)” value [11] was 28.8 ± 0.9 °C.
